Targets include collagen type III (UniProt P02461); collagen type IV (UniProt P02462); collagen type IX (UniProt P20849); collagen type V (UniProt P20908).
Common to all, as to assay: radioligand binding
Test [1] deals with Englebreth-Holm sarcoma laminin (UniProt P19137).
In test [2] the target is laminin and collagen type IV (isotonic conditions with Ca2+).

“And” between values parts separate entries of the source, which are not always exact repeats. Equal entries are not always repeated.

Sequence of UniProt P20908 (P20908 38-1605, chain 1 of 2): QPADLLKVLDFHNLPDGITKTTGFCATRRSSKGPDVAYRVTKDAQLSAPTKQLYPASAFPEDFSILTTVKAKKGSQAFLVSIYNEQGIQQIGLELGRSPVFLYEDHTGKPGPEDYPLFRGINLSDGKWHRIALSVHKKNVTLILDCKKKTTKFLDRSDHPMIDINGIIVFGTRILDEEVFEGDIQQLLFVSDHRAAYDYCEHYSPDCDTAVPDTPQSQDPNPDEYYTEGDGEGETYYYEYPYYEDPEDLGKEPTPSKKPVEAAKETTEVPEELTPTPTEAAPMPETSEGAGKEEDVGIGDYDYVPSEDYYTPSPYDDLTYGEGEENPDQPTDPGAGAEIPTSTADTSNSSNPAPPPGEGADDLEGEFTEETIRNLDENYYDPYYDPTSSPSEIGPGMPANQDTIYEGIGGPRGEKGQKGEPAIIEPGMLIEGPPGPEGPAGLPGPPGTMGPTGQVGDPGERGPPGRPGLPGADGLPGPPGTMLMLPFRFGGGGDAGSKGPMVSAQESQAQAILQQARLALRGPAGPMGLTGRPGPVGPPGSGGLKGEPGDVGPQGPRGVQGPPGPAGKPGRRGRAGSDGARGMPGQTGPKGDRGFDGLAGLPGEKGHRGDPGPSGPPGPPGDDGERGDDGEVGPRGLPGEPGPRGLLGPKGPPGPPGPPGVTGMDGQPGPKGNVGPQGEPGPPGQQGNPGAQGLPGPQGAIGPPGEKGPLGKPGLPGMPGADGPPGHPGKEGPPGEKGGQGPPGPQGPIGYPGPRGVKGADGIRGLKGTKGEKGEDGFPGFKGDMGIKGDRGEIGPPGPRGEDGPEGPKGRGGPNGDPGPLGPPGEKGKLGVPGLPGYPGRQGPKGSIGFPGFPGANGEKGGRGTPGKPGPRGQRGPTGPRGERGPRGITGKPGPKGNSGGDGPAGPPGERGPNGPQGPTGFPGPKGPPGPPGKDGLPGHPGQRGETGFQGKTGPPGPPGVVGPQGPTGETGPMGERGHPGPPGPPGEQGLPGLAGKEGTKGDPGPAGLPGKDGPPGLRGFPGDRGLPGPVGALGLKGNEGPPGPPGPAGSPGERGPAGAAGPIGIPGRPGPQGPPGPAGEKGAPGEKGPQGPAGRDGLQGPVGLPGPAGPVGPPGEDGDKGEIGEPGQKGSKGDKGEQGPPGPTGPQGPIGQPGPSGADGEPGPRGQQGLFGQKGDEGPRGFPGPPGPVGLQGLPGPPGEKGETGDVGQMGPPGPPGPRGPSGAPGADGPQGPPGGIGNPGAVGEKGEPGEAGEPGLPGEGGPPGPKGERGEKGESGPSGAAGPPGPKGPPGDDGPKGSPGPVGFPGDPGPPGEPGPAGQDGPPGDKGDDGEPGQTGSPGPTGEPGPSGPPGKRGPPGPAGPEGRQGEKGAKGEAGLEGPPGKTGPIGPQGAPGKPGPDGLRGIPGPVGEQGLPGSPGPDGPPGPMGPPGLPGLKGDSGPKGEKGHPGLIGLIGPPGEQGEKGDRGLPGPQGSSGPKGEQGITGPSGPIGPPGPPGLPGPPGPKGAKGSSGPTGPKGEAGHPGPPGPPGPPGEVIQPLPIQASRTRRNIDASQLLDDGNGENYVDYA
Sequence of UniProt P20908 (P05997 27-1229, chain 2 of 2, further chain): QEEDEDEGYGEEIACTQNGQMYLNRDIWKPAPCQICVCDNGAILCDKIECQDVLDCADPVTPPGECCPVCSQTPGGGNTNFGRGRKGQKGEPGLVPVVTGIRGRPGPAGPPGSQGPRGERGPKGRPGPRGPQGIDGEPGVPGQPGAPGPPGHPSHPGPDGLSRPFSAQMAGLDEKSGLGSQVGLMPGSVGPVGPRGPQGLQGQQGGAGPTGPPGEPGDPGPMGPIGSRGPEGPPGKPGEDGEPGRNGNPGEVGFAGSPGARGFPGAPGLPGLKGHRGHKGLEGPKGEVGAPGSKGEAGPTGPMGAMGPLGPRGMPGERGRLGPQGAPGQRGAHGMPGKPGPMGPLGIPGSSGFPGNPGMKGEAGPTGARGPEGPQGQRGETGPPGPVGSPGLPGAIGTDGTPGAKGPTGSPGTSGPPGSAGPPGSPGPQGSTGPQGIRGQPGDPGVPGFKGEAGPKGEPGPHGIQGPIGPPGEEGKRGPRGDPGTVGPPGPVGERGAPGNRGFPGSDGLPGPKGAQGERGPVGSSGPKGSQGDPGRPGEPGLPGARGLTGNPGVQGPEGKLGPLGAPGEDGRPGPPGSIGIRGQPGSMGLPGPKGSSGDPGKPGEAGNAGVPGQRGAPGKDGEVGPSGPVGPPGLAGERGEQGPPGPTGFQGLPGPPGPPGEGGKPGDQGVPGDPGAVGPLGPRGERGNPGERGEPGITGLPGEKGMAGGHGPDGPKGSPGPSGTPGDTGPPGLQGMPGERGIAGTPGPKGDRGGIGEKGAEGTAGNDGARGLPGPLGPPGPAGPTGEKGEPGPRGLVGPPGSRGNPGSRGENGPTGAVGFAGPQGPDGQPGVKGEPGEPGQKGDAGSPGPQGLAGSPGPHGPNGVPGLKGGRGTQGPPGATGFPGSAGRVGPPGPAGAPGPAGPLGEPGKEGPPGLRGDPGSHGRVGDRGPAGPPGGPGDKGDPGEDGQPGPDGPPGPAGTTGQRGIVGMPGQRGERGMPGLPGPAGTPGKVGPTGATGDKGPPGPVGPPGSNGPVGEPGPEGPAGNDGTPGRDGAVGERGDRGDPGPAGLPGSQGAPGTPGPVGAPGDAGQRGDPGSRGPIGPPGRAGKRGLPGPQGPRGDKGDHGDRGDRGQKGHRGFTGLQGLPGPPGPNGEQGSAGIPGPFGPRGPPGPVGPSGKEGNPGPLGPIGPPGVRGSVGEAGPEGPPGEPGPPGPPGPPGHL
Sequence of UniProt P02461 (P02461 24-1221): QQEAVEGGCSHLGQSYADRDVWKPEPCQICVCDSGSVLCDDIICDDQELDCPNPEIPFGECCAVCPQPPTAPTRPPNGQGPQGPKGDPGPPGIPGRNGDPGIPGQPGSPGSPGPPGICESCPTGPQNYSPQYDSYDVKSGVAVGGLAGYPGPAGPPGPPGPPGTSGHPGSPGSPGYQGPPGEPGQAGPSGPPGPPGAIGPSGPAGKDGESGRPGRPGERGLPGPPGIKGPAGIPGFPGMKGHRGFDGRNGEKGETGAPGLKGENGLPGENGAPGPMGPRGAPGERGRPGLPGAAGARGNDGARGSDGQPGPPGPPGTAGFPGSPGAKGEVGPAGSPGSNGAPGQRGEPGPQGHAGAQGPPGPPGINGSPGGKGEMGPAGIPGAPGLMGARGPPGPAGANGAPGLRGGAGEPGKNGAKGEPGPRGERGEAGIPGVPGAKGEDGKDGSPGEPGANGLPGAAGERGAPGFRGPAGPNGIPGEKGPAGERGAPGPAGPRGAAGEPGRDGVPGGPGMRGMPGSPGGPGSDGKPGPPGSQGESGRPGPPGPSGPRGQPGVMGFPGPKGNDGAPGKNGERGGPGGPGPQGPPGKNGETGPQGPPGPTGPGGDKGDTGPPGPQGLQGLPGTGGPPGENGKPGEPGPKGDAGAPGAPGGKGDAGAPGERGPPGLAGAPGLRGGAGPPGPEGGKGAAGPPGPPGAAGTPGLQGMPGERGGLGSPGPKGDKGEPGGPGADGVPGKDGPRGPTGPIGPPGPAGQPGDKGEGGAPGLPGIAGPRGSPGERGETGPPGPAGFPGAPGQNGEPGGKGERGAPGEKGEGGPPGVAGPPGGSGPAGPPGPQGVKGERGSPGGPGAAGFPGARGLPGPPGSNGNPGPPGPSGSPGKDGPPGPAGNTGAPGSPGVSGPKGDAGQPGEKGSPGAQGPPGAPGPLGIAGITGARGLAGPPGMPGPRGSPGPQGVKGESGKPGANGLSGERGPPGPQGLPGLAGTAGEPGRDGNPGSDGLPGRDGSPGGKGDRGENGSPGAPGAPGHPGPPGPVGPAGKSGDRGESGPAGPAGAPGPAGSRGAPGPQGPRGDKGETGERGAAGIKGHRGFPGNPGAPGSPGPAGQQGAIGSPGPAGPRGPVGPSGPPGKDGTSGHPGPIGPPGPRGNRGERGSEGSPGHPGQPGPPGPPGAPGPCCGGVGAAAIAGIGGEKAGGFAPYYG

In the case of astrochondrin (natural protein), the fold binding over binding to BSA in test [1] was 3.5 fold; with collagen type III it was 10 fold; in the test with collagen type IV it was less than 7 fold; in the test with collagen type IX it was less than 7 fold; with collagen type V, 10 fold; in test [2] it was 5 fold and 7 fold. The percent of the total input bound in test [1] is 15%; with collagen type III it was less than 80%; with collagen type IV it was 30%; with collagen type IX, 30%; with collagen type V, less than 80%. Also, the percent of the added astrochondrin bound with collagen type III and in the test with collagen type V was less than 40% throughout. Further, the percent of the total input bound at 15 mM NaCl with collagen type III and in the test with collagen type V was 30% throughout.

Source of the values: publication PMC2119541.
